Experimental findings from patent US20210087270A1 are described below.

Test [1] concerns the target recombinant human KIR3DL2 protein (human) (UniProt P43630). Nature of the test: SPR (Biacore), average bivalent binding affinity to recombinant KIR3DL2. On the technique in general: Surface plasmon resonance follows binding to a sensor surface in real time, without labels.
For test [2], the target named is human KIR3DL2 (CD158k), wild type, at the cell surface (human) (UniProt P43630). Nature of the test: PK/PD model parameter 'Binding affinity', set from the filing's flow cytometry titration of IPH4102 on KIR3DL2-positive cells (EC50 about 0.07 ug/mL); not a separate kinetic measurement.
Chain of human KIR3DL2 (CD158k), wild type, at the cell surface (human) (P43630 22-455 E158D): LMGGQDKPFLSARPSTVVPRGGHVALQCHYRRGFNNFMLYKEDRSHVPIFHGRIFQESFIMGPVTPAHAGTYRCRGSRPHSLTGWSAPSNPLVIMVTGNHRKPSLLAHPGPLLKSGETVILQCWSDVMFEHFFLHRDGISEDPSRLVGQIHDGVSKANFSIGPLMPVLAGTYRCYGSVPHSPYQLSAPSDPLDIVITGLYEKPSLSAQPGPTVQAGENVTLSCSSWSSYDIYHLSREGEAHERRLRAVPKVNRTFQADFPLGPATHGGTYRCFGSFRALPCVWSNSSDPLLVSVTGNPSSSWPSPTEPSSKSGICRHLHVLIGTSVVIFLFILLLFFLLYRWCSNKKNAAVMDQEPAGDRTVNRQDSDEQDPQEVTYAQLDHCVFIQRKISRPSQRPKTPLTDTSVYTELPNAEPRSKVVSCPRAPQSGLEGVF
Test [3] shares this target. Nature of the test: flow cytometry, concentration-response binding of PE-labelled IPH4102 on COU-L Sezary cell line. In general terms: A flow cytometer gives signals particle by particle.
For test [4] the target is unchanged. Kind of test: cell-based or functional assay.
For test [5], the target named is recombinant human KIR3DL2 protein (human) (UniProt P43630). Nature of the test: SPR (Biacore), bivalent binding, N = 1.
Test [6] shares this target. Nature of the test: SPR (Biacore), bivalent binding, N = 3.
The target in test [7] is human KIR3DL2 (CD158k), wild type, at the cell surface (human) (UniProt P43630). Nature of the test: flow cytometry, concentration-response binding of PE-labelled IPH4102 on primary Sezary tumor cells.
Test [8] deals with recombinant human KIR3DL2 protein (human) (UniProt P43630). Kind of test: SPR (Biacore), mean off-rate for bivalent binding converted to per hour.
For test [9] the target is unchanged. Nature of the test: SPR (Biacore), bivalent binding, mean of three.
The target in test [10] is human KIR3DL2 (CD158k), wild type, at the cell surface (human) (UniProt P43630). Nature of the test: flow cytometry, concentration-response binding of PE-labelled IPH4102 on HuT78 Sezary cell line.
The target in test [11] is recombinant human KIR3DL2 protein (human) (UniProt P43630). Nature of the test: SPR (Biacore), bivalent binding, N = 2.

As usually defined, the EC50 is the concentration that produces a half-maximal response. Low readings indicate higher potency in that assay, high ones lower potency in that assay. As usually defined, the koff is a measure of how fast the partners let go of each other. Broadly, the kon is the second-order rate constant of association.

B1: IPH4102 (humanized 2B12 mAb, full-length human IgG1 anti-KIR3DL2 antibody) (antibody, from a related filing, V domains shown)
VH: QIQLVQSGSELKKPGASVKVSCKASGYTFTTAGMQWVRQAPGQGLEWIGWINSHSGVPKYAEDFKGRFVFSLDTSVSTAYLQISSLKAEDTAVYFCARGGDEGVMDYWGQGTTVTVSS
VL: DIQMTQSPSFLSASVGDRVTITCKASQDVSTAVAWYQQKPGQPPKLLIYWTSTRHTGVPDRFSGSGSGTDYTLTISSLQAEDVAVYYCQQHYSTPWTFGGGTKVEIK
Consider B1, for which the Kd in test [1] stood at 0.0219 µg/mL; in test [2], 0.07 µg/mL; in test [5] it was 0.162 nM; in test [6] it was 0.144 nM; in test [9], 0.146 nM; in [11], 0.131 nM. For the same molecule, the EC50 stood at 0.087 µg/mL in test [3], 0.07 µg/mL in test [7] and 0.06 µg/mL in [10]. In [4], this molecule had an EC50 in 51Cr-release assay HuT 78 tumor lysis by PBMC from healthy volunteers of 0.045 µg/mL. For the same molecule, the median EC10 in the 51Cr release assay (HuT78 tumor cell lysis by healthy donors' PBMC, NK cell lytic capacity) in test [4] worked out at 0.002 µg/mL. Also, the koff in test [5] stood at 0.000156 s⁻¹; in test [6] it was 0.000139 s⁻¹; in test [8], 0.00014 s⁻¹; in test [9], 0.00014 s⁻¹; in test [11], 0.000125 s⁻¹. In addition, the kon in test [5] worked out at 968000 M⁻¹ s⁻¹; in [6], 965000 M⁻¹ s⁻¹; in [9], 962000 M⁻¹ s⁻¹; in test [11], 953000 M⁻¹ s⁻¹.
